Data reported in publication PMC6624373.
Values joined by “and” are separate entries in the source; they are usually repeats but may differ in a detail not shown here. Equal values may be shown once.

How the values were obtained:
Details in all cases: remark: other sources report otherwise
[1] = target: T1, lamin A (human, mature form, without tags, wild type) (human), P02545; experiment: AUC; sedimentation velocity, 0.3 mg/mL lamin A in Tris or NaPi buffer, 45,000 rpm, 20 °C, interference optics, c(s) model
T1 chain: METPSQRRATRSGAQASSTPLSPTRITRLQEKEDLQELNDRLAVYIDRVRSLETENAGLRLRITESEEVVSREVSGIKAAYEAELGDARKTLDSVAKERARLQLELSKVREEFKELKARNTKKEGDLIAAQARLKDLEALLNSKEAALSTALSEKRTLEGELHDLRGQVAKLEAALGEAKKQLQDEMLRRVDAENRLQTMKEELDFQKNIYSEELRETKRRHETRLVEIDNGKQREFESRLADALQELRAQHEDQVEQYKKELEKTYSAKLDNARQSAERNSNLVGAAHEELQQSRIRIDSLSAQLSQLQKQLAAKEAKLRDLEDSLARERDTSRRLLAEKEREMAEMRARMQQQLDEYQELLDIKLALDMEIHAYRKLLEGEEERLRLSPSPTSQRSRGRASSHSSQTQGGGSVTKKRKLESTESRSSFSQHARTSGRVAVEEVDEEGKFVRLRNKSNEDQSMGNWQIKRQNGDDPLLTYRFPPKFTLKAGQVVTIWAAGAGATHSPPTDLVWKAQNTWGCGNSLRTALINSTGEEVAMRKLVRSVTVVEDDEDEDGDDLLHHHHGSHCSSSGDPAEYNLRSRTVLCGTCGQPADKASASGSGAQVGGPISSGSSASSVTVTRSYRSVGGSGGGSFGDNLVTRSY

[2] = target: T1, lamin A (human, mature form, without …); experiment: as above
[3] = target: T1, lamin A (human, mature form, without …); experiment: cross-linking; 0.4 mg/mL lamin A in NaPi buffer, EDC:S-NHS (1:4:8.8 by weight lamin A:EDC:S-NHS), 30 min, room temperature; product bands resolved by SDS-PAGE, gel-extracted and seen by rotary metal shadowing EM
[4] = target: T2, 6xHis-tagged lamin A (human, mature form) (human), P02545; experiment: pull-down; Ni-NTA pull-down of a 1:1 mix of un-tagged and 6xHis-tagged lamin A monomers after gel-extraction and refolding
T2 chain: T1 chain

[5] = target: T1, lamin A (human, mature form, without …); experiment: rotary metal shadowing EM; un-cross-linked lamin A at 0.1 mg/mL in Tris buffer (25 mM Tris, 250 mM NaCl, pH 8.0) or NaPi buffer (100 mM NaPi, 250 mM NaCl, pH 8.0), 30% glycerol, sprayed on mica; dimers and head-to-tail tetramers

B1: lamin A (human, mature form, without tags, wild type), P02545 1-646 (natural protein)
chain: T1 chain
- stoichiometry N [1]: 4
- stoichiometry N [2]: 2
- stoichiometry N [3]: 2 and 4
- percent of un-tagged lamin A retained on the beads [4]: 50%
- dimers seen per head-to-tail tetramer (EM) (dimers per tetramer) [5]: 20 to 25
- stoichiometry N [5]: 2 and 4
